Share of Rubisco in the pelleted condensate that contained C. reinhardtii SSU (Coomassie-stained gel), share of Rubisco localized to the condensate (immunogold TEM, polyclonal Rubisco antibody) and share of the C. reinhardtii SSU localized to the condensate (immunogold TEM, anti-CrRbcS2) data for one substance are collected here from US20220282268A1.

The target of the experiment is Hybrid Rubisco of A. thaliana S2Cr lines (1a3b mutant complemented with S2Cr) (Arabidopsis thaliana; Chlamydomonas reinhardtii) (UniProt O03042). The experiment can be described thus: cell-based or functional assay.

As for “EPYC1-dGFP (truncated mature EPYC1 expressed from two cassettes as EPYC1::eGFP and EPYC1::tGFP)”, the share of Rubisco in the pelleted condensate that contained C. reinhardtii SSU (Coomassie-stained gel) worked out at 82%; the share of Rubisco localized to the condensate (immunogold TEM, polyclonal Rubisco antibody) is 54%; the share of the C. reinhardtii SSU localized to the condensate (immunogold TEM, anti-CrRbcS2) came to 81%.
